What was measured:
[1] = target: G-actin (rabbit muscle) (rabbit) (UniProt P68135)
[2] = target: pyrenyl-labeled F-actin (rabbit muscle) (rabbit) (UniProt P68135); test: other fluorescence titration
[3] = target: NBD-labeled G-actin (rabbit muscle) (rabbit) (UniProt P68135); test: other fluorescence titration
[4] = target: F-actin (rabbit muscle) (rabbit) (UniProt P68135); test: co-sedimentation

In the case of “Recombinant ADF1 from Arabidopsis thaliana (natural protein)”, the association to barbed ends in low ionic strength F buffer (1 mM MgCl2) [1] is reported as 20 fold, the Ka [2] is reported as greater than 1e+06 M⁻¹ and the stoichiometry N [2] is reported as 1. It also gave a Kd [3] of 25 nM, a stoichiometry N [3] of 1 and a stoichiometry N [4] of 1.
